# Laboratory results as given in patent US6875851B1 (priority 1999, dated 2005).
# B1: α2-macroglobulin: Human plasma inhibitor (protein)
# chain: SVSGKPQYMVLVPSLLHTETTEKGCVLLSYLNETVTVSASLESVRGNRSLFTDLEAENDVLHCVAFAVPKSSSNEEVMFLTVQVKGPTQEFKKRTTVMVKNEDSLVFVQTDKSIYKPGQTVKFRVVSMDENFHPLNELIPLVYIQDPKGNRIAQWQSFQLEGGLKQFSFPLSSEPFQGSYKVVVQKKSGGRTEHPFTVEEFVLPKFEVQVTVPKIITILEEEMNVSVCGLYTYGKPVPGHVTVSICRKYSDASDCHGEDSQAFCEKFSGQLNSHGCFYQQVKTKVFQLKRKEYEMKLHTEAQIQEEGTVVELTGRQSSEITRTITKLSFVKVDSHFRQGIPFFGQVRLVDGKGVPIPNKVIFIRGNEANYYSNATTDEHGLVQFSINTTNVMGTSLTVRVNYKDRSPCYGYQWVSEEHEEAHHTAYLVFSPSKSFVHLEPMSHELPCGHTQTVQAHYILNGGTLLGLKKLSFYYLIMAKGGIVRTGTHGLLVKQEDMKGHFSISIPVKSDIAPVARLLIYAVLPTGDVIGDSAKYDVENCLANKVDLSFSPSQSLPASHAHLRVTAAPQSVCALRAVDQSVLLMKPDAELSASSVYNLLPEKDLTGFPGPLNDQDNEDCINRHNVYINGITYTPVSSTNEKDMYSFLEDMGLKAFTNSKIRKPKMCPQLQQYEMHGPEGLRVGFYESDVMGRGHARLVHVEEPHTETVRKYFPETWIWDLVVVNSAGVAEVGVTVPDTITEWKAGAFCLSEDAGLGISSTASLRAFQPFFVELTMPYSVIRGEAFTLKATVLNYLPKCIRVSVQLEASPAFLAVPVEKEQAPHCICANGRQTVSWAVTPKSLGNVNFTVSAEALESQELCGTEVPSVPEHGRKDTVIKPLLVEPEGLEKETTFNSLLCPSGGEVSEELSLKLPPNVVEESARASVSVLGDILGSAMQNTQNLLQMPYGCGEQNMVLFAPNIYVLDYLNETQQLTPEIKSKAIGYLNTGYQRQLNYKHYDGSYSTFGERYGRNQGNTWLTAFVLKTFAQARAYIFIDEAHITQALIWLSQRQKDNGCFRSSGSLLNNAIKGGVEDEVTLSAYITIALLEIPLTVTHPVVRNALFCLESAWKTAQEGDHGSHVYTKALLAYAFALAGNQDKRKEVLKSLNEEAVKKDNSVHWERPQKPKAPVGHFYEPQAPSAEVEMTSYVLLAYLTAQPAPTSEDLTSATNIVKWITKQQNAQGGFSSTQDTVVALHALSKYGAATFTRTGKAAQVTIQSSGTFSSKFQVDNNNRLLLQQVSLPELPGEYSMKVTGEGCVYLQTSLKYNILPEKEEFPFALGVQTLPQTCDEPKAHTSFQISLSVSYTGSRSASNMAIVDVKMVSGFIPLKPTVKMLERSNHVSRTEVSSNHVLIYLDKVSNQTLSLFFTVLQDVPVRDLKPAIVKVYDYYETDEFAIAEYNAPCSKDLGNA
# B2: α1-antichymotrypsin: Human plasma inhibitor (protein)
# chain: HPNSPLDEENLTQENQDRGTHVDLGLASANVDFAFSLYKQLVLKAPDKNVIFSPLSISTALAFLSLGAHNTTLTEILKGLKFNLTETSEAEIHQSFQHLLRTLNQSSDELQLSMGNAMFVKEQLSLLDRFTEDAKRLYGSEAFATDFQDSAAAKKLINDYVKNGTRGKITDLIKDLDSQTMMVLVNYIFFKAKWEMPFDPQDTHQSRFYLSKKKWVMVPMMSLHHLTIPYFRDEELSCTVVELKYTGNASALFILPDQDKMEEVEAMLLPETLKRWRDSLEFREIGELYLPKFSISRDYNLNDILLQLGIEEAFTSKADLSGITGARNLAVSQVVHKAVLDVFEEGTEASAATAVKITLLSALVETRTIVRFNRPFLMIIVPTDTQNIFFMSKVTNPKQA
# B3: PTP-A: prolyl-tripeptidyl peptidase A (SEQ ID NO:30) from P. gingivalis (protein, listed as Porphyromonas gingivalis)
# chain: MKKTIFQQLFLSVCALTVALPCSAQSPETSGKEFTLEQLMPGGKEFYNFYPEYVVGLQWMGDNYVFIEGDDLVFNKANGKSAQTTRFSAADLNALMPEGCKFQTTDAFPSFRTLDAGRGLVVLFTQGGLVGFDMLARKVTYLFDTNEETASLDFSPVGDRVAYVRNHNLYIARGGKLGEGMSRAIAVTIDGTETLVYGQAVHQREFGIEKGTFWSPKGSCLAFYRMDQSMVKPTPIVDYHPLEAESKPLYYPMAGTPSHHVTVGIYHLATGKTVYLQTGEPKEKFLTNLSWSPDENILYVAEVNRAQNECKVNAYDAETGRFVRTLFVETDKHYVEPLHPLTFLPGSNNQFIWQSRRDGWNHLYLYDTTGRLIRQVTKGEWEVTNFAGFDPKGTRLYFESTEASPLERHFYCIDIKGGKTKDLTPESGMHRTQLSPDGSAIIDIFQSPTVPRKVTVTNIGKGSHTLLEAKNPDTGYAMPEIRTGTIMAADGQTPLYYKLTMPLHFDPAKKYPVIVYVYGGPHAQLVTKTWRSSVGGWDIYMAQKGYAVFTVDSRGSANRGAAFEQVIHRRLGQTEMADQMCGVDFLKSQSWVDADRIGVHGWSYGGFMTTNLMLTHGDVFKVGVAGGPVIDWNRYEIMYGERYFDAPQENPEGYDAANLLKRAGDLKGRLMLIHGAIDPVVVWQHSLLFLDACVKARTYPDYYVYPSHEHNVMGPDRVHLYETITRYFTDHL
# B4: human cystatin C: protein substrate, provided by Dr. Magnus Abrahamson (protein)
# chain: SSPGKPPRLVGGPMDASVEEEGVRRALDFAVGEYNKASNDMYHSRALQVVRARKQIVAGVNYFLDVELGRTTCTKTQPNLDNCPFHDQPHLKRKAFCSFQIYAVPWQGTMTLSKSTCQDA
# How the values were obtained:
# [1] = test system: PTP-A; assay type: biochemical, P. gingivalis
# [2] = test system: PTP-A; assay type: biochemical, P. gingivalis; remark: listed apart in the source
# [3] = pH optimum and stability of PTP-A by amidolytic activity assay; assay type: physicochemical, P. gingivalis; conditions: 0.2 M HEPES
# Protocol: Enzyme Activity Assays—Routinely, the tripeptidyl peptidase amidolytic activity was measured with H-Ala-Phe-Pro-pNA (1 mM) in 0.2 M HEPES (N-2-hydroxyethylpeperazine,N′-2-ethansulfonic acid), pH 7.5 at 37° C. The concentration of enzyme was 0.1 nM to 1 nM. The assay was performed in a total volume of 0.2 ml on microplates, and the initial turnover rate was recorded at 405 nm using a microplate reader (Spectramax Molecular Devices, Sunnyvale, Calif.). In inhibition studies, the enzyme was first preincubated with inhibitor for 15 min at 37° C., substrate added, and residual activity recorded after 5 minutes to 30 minutes. H-Gly-Pro-pNA, Z-Ala-Pro-pNA, Z-Gly-Pro-pNA and H-Pro-pNA (1 mM final concentration) were assayed in the same manner.
# PTP-A activity was not affected by class specific synthetic inhibitors of cysteine or metalloproteinases (Table 2).
molecule,measurement,setting,value
B1,Cleavage of protein by PTP-A (in words),[1],nor were they cleaved by PTP-A
same,Effect on PTP-A amidolytic activity (in words),[2],did not affect the enzyme activity
B2,Cleavage of protein by PTP-A (in words),[1],nor were they cleaved by PTP-A
same,Effect on PTP-A amidolytic activity (in words),[2],did not affect the enzyme activity
B3,Stability (time stable),"[3]; pH 7.6, 25° C.",at least 12 hours
same,Stability (time stable),"[3]; pH 7.6, 37° C.",at least 12 hours
B4,Cleavage of protein by PTP-A (in words),[1],able to cleave a tripeptide
